Reference: patent publication US20150044250A1 (INTERVET, published 2015)

Key:
[1] = target: the molecule itself; assay: SEC-UV (self-association)
[2] = target: the molecule itself; assay: SEC-MALS (self-association)

Row | Protein | binding result [1] | binding result [2]
1 | 3mCDTa1 (CDTa minus the signal peptide with R302A, E385A and E387D) (enzyme) MVCNTTYKAPIERPEDFLKDKEKAKEWERKEAERIEQKLERSEKEALESYKKDSVEISKYSQTRNYFYDYQIEANSREKEYKELRNAISKNKIDKPMYVYYFESPEKFAFNKVIRTENQNEISLEKFNEFKETIQNKLFKQDGFKDISLYEPGKGDEKPTPLLMHLKLPRNTGMLPYTNTNNVSTLIEQGYSIKIDKIVRIVIDGKHYIKAEASVVSSLDFKDDVSKGDSWGKANYNDWSNKLTPNELADVNDYMRGGYTAINNYLISNGPVNNPNPELDSKITNIENALKREPIPTNLTVYARSGPQEFGLTLTSPEYDFNKLENIDAFKSKWEGQALSYPNFISTSIGSVNMSAFAKRKIVLRITIPKGSPGAYLSAIPGYAGAYDVLLNHGSKFKINKIDSYKDGTITKLIVDATLIP | binds | –
2 | 4mCDTa8 (CDTa minus the signal peptide with S345F, E385Q, E387Q and C2A) (enzyme) MVANTTYKAPIERPEDFLKDKEKAKEWERKEAERIEQKLERSEKEALESYKKDSVEISKYSQTRNYFYDYQIEANSREKEYKELRNAISKNKIDKPMYVYYFESPEKFAFNKVIRTENQNEISLEKFNEFKETIQNKLFKQDGFKDISLYEPGKGDEKPTPLLMHLKLPRNTGMLPYTNTNNVSTLIEQGYSIKIDKIVRIVIDGKHYIKAEASVVSSLDFKDDVSKGDSWGKANYNDWSNKLTPNELADVNDYMRGGYTAINNYLISNGPVNNPNPELDSKITNIENALKREPIPTNLTVYRRSGPQEFGLTLTSPEYDFNKLENIDAFKSKWEGQALSYPNFIFTSIGSVNMSAFAKRKIVLRITIPKGSPGAYLSAIPGYAGQYQVLLNHGSKFKINKIDSYKDGTITKLIVDATLIP | – | no binding
